Where a chain is given by its changes, count along the chain named. Numbers in names are those of the source.
B1: F406Y (protein)
chain: GFGDVGALESLRGNADLAYILSMEPCGHCLIINNVNFCRESGLRTRTGSNIDCEKLRRRFSSLHFMVEVKGDLTAKKMVLALLELARQDHGALDCCVVVILSHGCQASHLQFPGAVYGTDGCPVSVEKIVNIFNGTSCPSLGGKPKLFFIQACGGEQKDHGFEVASTSPEDESPGSNPEPDATPFQEGLRTFDQLDAISSLPTPSDIFVSYSTFPGFVSWRDPKSGSWYVETLDDIFEQWAHSEDLQSLLLRVANAVSVKGIYKQMPGCFNYLRKKLFFKTSASRA
B2: F404W (protein)
chain: B1 chain with F270W, Y272F
B3: A331K (protein)
chain: B1 chain with A197K, Y272F
B4: N405A (protein)
chain: B1 chain with N271A, Y272F
B5: F319A (protein)
chain: B1 chain with F185A, Y272F
B6: D330E (protein)
chain: B1 chain with D196E, Y272F
B7: T317E (protein)
chain: B1 chain with T183E, Y272F
B8: T317C (protein)
chain: B1 chain with T183C, Y272F
B9: N405F (protein)
chain: B1 chain with N271F, Y272F
B10: D315A (protein)
chain: B1 chain with D181A, Y272F
B11: F319W (protein)
chain: B1 chain with F185W, Y272F
B12: D330A (protein)
chain: B1 chain with D196A, Y272F
B13: L329K (protein)
chain: B1 chain with L195K, Y272F
B14: C403S (protein)
chain: B1 chain with C269S, Y272F
B15: F406T (protein)
chain: B1 chain with Y272T
B16: N405T (protein)
chain: B1 chain with N271T, Y272F
B17: P318A (protein)
chain: B1 chain with P184A, Y272F
B18: S307A (protein)
chain: B1 chain with S173A, Y272F
B19: F326K (protein)
chain: B1 chain with F192K, Y272F
B20: C403A (protein)
chain: B1 chain with C269A, Y272F
B21: Y153F (protein)
chain: B1 chain with Y19F, Y272F
B22: A316G (protein)
chain: B1 chain with A182G, Y272F
B23: F404T (protein)
chain: B1 chain with F270T, Y272F
B24: D330A-N405T (protein)
chain: B1 chain with D196A, N271T, Y272F
B25: C403T (protein)
chain: B1 chain with C269T, Y272F
B26: Y153A (protein)
chain: B1 chain with Y19A, Y272F
B27: N405Qco (protein, UniProt P55211 1-416, looked up, variant N405Q)
chain: MDEADRRLLRRCRLRLVEELQVDQLWDALLSRELFRPHMIEDIQRAGSGSRRDQARQLIIDLETRGSQALPLFISCLEDTGQDMLASFLRTNRQAAKLSKPTLENLTPVVLRPEIRKPEVLRPETPRPVDIGSGGFGDVGALESLRGNADLAYILSMEPCGHCLIINNVNFCRESGLRTRTGSNIDCEKLRRRFSSLHFMVEVKGDLTAKKMVLALLELAQQDHGALDCCVVVILSHGCQASHLQFPGAVYGTDGCPVSVEKIVNIFNGTSCPSLGGKPKLFFIQACGGEQKDHGFEVASTSPEDESPGSNPEPDATPFQEGLRTFDQLDAISSLPTPSDIFVSYSTFPGFVSWRDPKSGSWYVETLDDIFEQWAHSEDLQSLLLRVANAVSVKGIYKQMPGCFQFLRKKLFFKTS
modifications: codon-optimized; in iC9 construct
B28: 316ATPF^319AVPI (SMAC/Diablo) (protein, UniProt P55211 1-416, looked up, variant T317V F319I)
chain: B27 chain with T317V, F319I, Q405N

Tested on: chimeric Caspase-9 polypeptide
Sequence (P62942 2-108 F37V limits assumed): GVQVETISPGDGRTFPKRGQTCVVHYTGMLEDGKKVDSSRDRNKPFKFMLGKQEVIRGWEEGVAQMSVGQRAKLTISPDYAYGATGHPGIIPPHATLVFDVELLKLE
Test: Caspase-9 mutant classes and basal activity (Table 5)
Format: cell-based
Details: Caspase-9 mutant class; for Basal Activity: basal (ligand-independent) signaling compared with unmodified chimeric Caspase-9; for IC50: ligand IC50 compared with unmodified chimeric Caspase-9
Source text: Even though homo-dimerization of wild-type initiator Caspase-9 is energetically unfavorable, making them mostly monomers in solution [14-16], the low-level inherent basal activity of unprocessed Caspase-9 [15, 17] is enhanced in the presence of the Apaf-1-based “apoptosome”, its natural allosteric regulator [6]. Moreover, supra-physiological expression levels and/or co-localization could lead to proximity-driven dimerization, further enhancing basal activation. The modified cells of the present application may comprise nucleic acids coding for a chimeric Caspase-9 polypeptide having lower basal signaling activity. Polynucleotides comprising Caspase-9 mutants with lower basal signaling may be expressed in the modified cells used for cell therapy herein. In these examples, the modified cells may include a safety switch, comprising a polynucleotide encoding a lower basal signaling chimeric Caspase-9 polypeptide. In the event of an adverse event following administration of the modified cells comprising the chimeric signaling polypeptides or chimeric antigen receptors herein, Caspase-9 activity may be induced by administering the dimerizer to the patient, thus inducing apoptosis and clearance of some, or all of the modified cells. In some examples, the amount of dimerizer administered may be determined as an amount designed to remove the highest amount, at least 80% or 90% of the modified cells. In other examples, the amount of dimerizer administered may be determined as an amount designed to remove only a portion of the modified cells, in order to alleviate negative symptoms or conditions, while leaving a sufficient amount of therapeutic modified cells in the patient, in order to continue therapy. Methods for using chimeric Caspase-9 polypeptides to induce apoptosis are discussed in PCT Application Number PCT/US2011/037381 by Malcolm K. Brenner et al., titled Methods for Inducing Selective Apoptosis, filed May 20, 2011, and in U.S. patent application Ser. No. 13/112,739 by Malcolm K. Brenner et al., titled Methods for Inducing Selective Apoptosis, filed May 20, 2011, issued Jul. 28, 2015 as U.S. Pat. No. 9,089,520. Chimeric caspase polypeptides having modified basal activity are discussed in PCT Application Serial Number PCT/US2014/022004 by David Spencer et al., titled Modified Caspase Polypeptides and Uses Thereof, filed Mar. 7, 2014, published Oct. 9, 2014 as WO2014/164348, and in U.S. patent application Ser. No. 13/792,135 by David Spencer et al., titled Modified Caspase Polypeptides and Uses Thereof, filed Mar. 7, 2014; and in U.S. patent application Ser. No. 14/640,553 by Spencer et al., filed Mar. 6, 2015. Methods for inducing partial apoptosis of the therapeutic modified cells are discussed in PCT Application Number PCT/US14/040964 by Kevin Slawin et al., titled Methods for Inducing Partial Apoptosis Using Caspase Polypeptides, filed Jun. 4, 2014, published Dec. 11, 2014 as WO2014/197638, and in U.S. patent application Ser. No. 14/296,404 by Kevin Slawin et al., titled Methods for Inducing Partial Apoptosis Using Caspase Polypeptides, filed Jun. 4, 2014. These patent applications and publications are all incorporated by reference herein in their entireties.

| Molecule | Basal Activity | IC50 |
| --- | --- | --- |
| B1 | Decreased | higher IC50 |
| B2 | Decreased | much higher |
| B3 | Increased | – |
| B4 | Similar | Similar |
| B5 | Similar | Similar |
| B6 | Decreased | higher IC50 |
| B7 | Increased | – |
| B8 | Similar | Similar |
| B9 | Decreased | much higher |
| B10 | Decreased | much higher |
| B11 | Decreased | much higher |
| B12 | Decreased | higher IC50 |
| B13 | Increased | – |
| B14 | Similar | Similar |
| B15 | Decreased | much higher |
| B16 | Increased | – |
| B17 | Similar | Similar |
| B18 | Decreased | much higher |
| B19 | Increased | – |
| B20 | Similar | Similar |
| B21 | Decreased | much higher |
| B22 | Decreased | much higher |
| B23 | Decreased | much higher |
| B24 | Increased | – |
| B25 | Similar | Similar |
| B26 | Decreased | much higher |
| B27 | Decreased | higher IC50 |
| B28 | Similar | Similar |

— patent US20210147507A1, “METHODS TO AUGMENT OR ALTER SIGNAL TRANSDUCTION” (Bellicum Pharmaceuticals, Inc., priority 2017, published 2021)
